# From patent US20260001928A1 (CORTERIA PHARMACEUTICALS, priority 2022, published 2026)
# *1 amine or outer side, *2 acyl side, *3 side chain or, on linkers, in order; H or OH if unused. Where no end group is shown, it is not given here. Side-chain parts run from the residue outwards. [ ]: non-standard residue; d: D form. The star is where a group is joined. C20 diacid = O=C(O)CCCCCCCCCCCCCCCCCCC(=O)*; C16 diacid = O=C(O)CCCCCCCCCCCCCCC(=O)*; γGlu = O=C(O)[C@H](CCC(=O)[*:2])N[*:1]; NMeI = CC[C@H](C)[C@H](NC)C(=O)O; Pentanoyl = CCCCC(=O)*; Aib = CC(C)(N)C(=O)O
# B1: peptide of SEQ ID NO: 222 (peptide)
# peptide: Pentanoyl-VLSLD[dV]PIKLK([γGlu-C20 diacid])KILLEQEKQKAQREQAETN[Aib]QILAQV-NH2
# SMILES: CCCCC(=O)N[C@H](C(=O)N[C@@H](CC(C)C)C(=O)N[C@@H](CO)C(=O)N[C@@H](CC(C)C)C(=O)N[C@@H](CC(=O)O)C(=O)N[C@@H](C(=O)N1CCC[C@H]1C(=O)N[C@H](C(=O)N[C@@H](CCCCN)C(=O)N[C@@H](CC(C)C)C(=O)N[C@@H](CCCCNC(=O)CC[C@H](NC(=O)CCCCCCCCCCCCCCCCCCC(=O)O)C(=O)O)C(=O)N[C@@H](CCCCN)C(=O)N[C@H](C(=O)N[C@@H](CC(C)C)C(=O)N[C@@H](CC(C)C)C(=O)N[C@@H](CCC(=O)O)C(=O)N[C@@H](CCC(N)=O)C(=O)N[C@@H](CCC(=O)O)C(=O)N[C@@H](CCCCN)C(=O)N[C@@H](CCC(N)=O)C(=O)N[C@@H](CCCCN)C(=O)N[C@@H](C)C(=O)N[C@@H](CCC(N)=O)C(=O)N[C@@H](CCCNC(=N)N)C(=O)N[C@@H](CCC(=O)O)C(=O)N[C@@H](CCC(N)=O)C(=O)N[C@@H](C)C(=O)N[C@@H](CCC(=O)O)C(=O)N[C@H](C(=O)N[C@@H](CC(N)=O)C(=O)NC(C)(C)C(=O)N[C@@H](CCC(N)=O)C(=O)N[C@H](C(=O)N[C@@H](CC(C)C)C(=O)N[C@@H](C)C(=O)N[C@@H](CCC(N)=O)C(=O)N[C@H](C(N)=O)C(C)C)[C@@H](C)CC)[C@@H](C)O)[C@@H](C)CC)[C@@H](C)CC)C(C)C)C(C)C
# B2: peptide of SEQ ID NO: 213 (peptide)
# peptide: Ac-IVLSLD[dV]PIKLK([γGlu-C20 diacid])KILLEQEKQKEQREQAETN[Aib]QILAQV-NH2
# SMILES: CC[C@H](C)[C@H](NC(C)=O)C(=O)N[C@H](C(=O)N[C@@H](CC(C)C)C(=O)N[C@@H](CO)C(=O)N[C@@H](CC(C)C)C(=O)N[C@@H](CC(=O)O)C(=O)N[C@@H](C(=O)N1CCC[C@H]1C(=O)N[C@H](C(=O)N[C@@H](CCCCN)C(=O)N[C@@H](CC(C)C)C(=O)N[C@@H](CCCCNC(=O)CC[C@H](NC(=O)CCCCCCCCCCCCCCCCCCC(=O)O)C(=O)O)C(=O)N[C@@H](CCCCN)C(=O)N[C@H](C(=O)N[C@@H](CC(C)C)C(=O)N[C@@H](CC(C)C)C(=O)N[C@@H](CCC(=O)O)C(=O)N[C@@H](CCC(N)=O)C(=O)N[C@@H](CCC(=O)O)C(=O)N[C@@H](CCCCN)C(=O)N[C@@H](CCC(N)=O)C(=O)N[C@@H](CCCCN)C(=O)N[C@@H](CCC(=O)O)C(=O)N[C@@H](CCC(N)=O)C(=O)N[C@@H](CCCNC(=N)N)C(=O)N[C@@H](CCC(=O)O)C(=O)N[C@@H](CCC(N)=O)C(=O)N[C@@H](C)C(=O)N[C@@H](CCC(=O)O)C(=O)N[C@H](C(=O)N[C@@H](CC(N)=O)C(=O)NC(C)(C)C(=O)N[C@@H](CCC(N)=O)C(=O)N[C@H](C(=O)N[C@@H](CC(C)C)C(=O)N[C@@H](C)C(=O)N[C@@H](CCC(N)=O)C(=O)N[C@H](C(N)=O)C(C)C)[C@@H](C)CC)[C@@H](C)O)[C@@H](C)CC)[C@@H](C)CC)C(C)C)C(C)C
# B3: peptide of SEQ ID NO: 168 (peptide)
# peptide: Ac-IVLSLD[dV]PIKLK([γGlu-C16 diacid])KILLEQEKQKEQREQAETN[Aib]QILAQV-NH2
# SMILES: CC[C@H](C)[C@H](NC(C)=O)C(=O)N[C@H](C(=O)N[C@@H](CC(C)C)C(=O)N[C@@H](CO)C(=O)N[C@@H](CC(C)C)C(=O)N[C@@H](CC(=O)O)C(=O)N[C@@H](C(=O)N1CCC[C@H]1C(=O)N[C@H](C(=O)N[C@@H](CCCCN)C(=O)N[C@@H](CC(C)C)C(=O)N[C@@H](CCCCNC(=O)CC[C@H](NC(=O)CCCCCCCCCCCCCCC(=O)O)C(=O)O)C(=O)N[C@@H](CCCCN)C(=O)N[C@H](C(=O)N[C@@H](CC(C)C)C(=O)N[C@@H](CC(C)C)C(=O)N[C@@H](CCC(=O)O)C(=O)N[C@@H](CCC(N)=O)C(=O)N[C@@H](CCC(=O)O)C(=O)N[C@@H](CCCCN)C(=O)N[C@@H](CCC(N)=O)C(=O)N[C@@H](CCCCN)C(=O)N[C@@H](CCC(=O)O)C(=O)N[C@@H](CCC(N)=O)C(=O)N[C@@H](CCCNC(=N)N)C(=O)N[C@@H](CCC(=O)O)C(=O)N[C@@H](CCC(N)=O)C(=O)N[C@@H](C)C(=O)N[C@@H](CCC(=O)O)C(=O)N[C@H](C(=O)N[C@@H](CC(N)=O)C(=O)NC(C)(C)C(=O)N[C@@H](CCC(N)=O)C(=O)N[C@H](C(=O)N[C@@H](CC(C)C)C(=O)N[C@@H](C)C(=O)N[C@@H](CCC(N)=O)C(=O)N[C@H](C(N)=O)C(C)C)[C@@H](C)CC)[C@@H](C)O)[C@@H](C)CC)[C@@H](C)CC)C(C)C)C(C)C
# B4: peptide of SEQ ID NO: 217 (peptide)
# peptide: [NMeI]VLSLD[dV]PIKLK([γGlu-C20 diacid])KILLEQEKQKAQREQAETN[Aib]QILAQV-NH2
# modifications: N-terminus assumed
# SMILES: CC[C@H](C)[C@H](NC)C(=O)N[C@H](C(=O)N[C@@H](CC(C)C)C(=O)N[C@@H](CO)C(=O)N[C@@H](CC(C)C)C(=O)N[C@@H](CC(=O)O)C(=O)N[C@@H](C(=O)N1CCC[C@H]1C(=O)N[C@H](C(=O)N[C@@H](CCCCN)C(=O)N[C@@H](CC(C)C)C(=O)N[C@@H](CCCCNC(=O)CC[C@H](NC(=O)CCCCCCCCCCCCCCCCCCC(=O)O)C(=O)O)C(=O)N[C@@H](CCCCN)C(=O)N[C@H](C(=O)N[C@@H](CC(C)C)C(=O)N[C@@H](CC(C)C)C(=O)N[C@@H](CCC(=O)O)C(=O)N[C@@H](CCC(N)=O)C(=O)N[C@@H](CCC(=O)O)C(=O)N[C@@H](CCCCN)C(=O)N[C@@H](CCC(N)=O)C(=O)N[C@@H](CCCCN)C(=O)N[C@@H](C)C(=O)N[C@@H](CCC(N)=O)C(=O)N[C@@H](CCCNC(=N)N)C(=O)N[C@@H](CCC(=O)O)C(=O)N[C@@H](CCC(N)=O)C(=O)N[C@@H](C)C(=O)N[C@@H](CCC(=O)O)C(=O)N[C@H](C(=O)N[C@@H](CC(N)=O)C(=O)NC(C)(C)C(=O)N[C@@H](CCC(N)=O)C(=O)N[C@H](C(=O)N[C@@H](CC(C)C)C(=O)N[C@@H](C)C(=O)N[C@@H](CCC(N)=O)C(=O)N[C@H](C(N)=O)C(C)C)[C@@H](C)CC)[C@@H](C)O)[C@@H](C)CC)[C@@H](C)CC)C(C)C)C(C)C
# B5: peptide of SEQ ID NO: 212 (peptide)
# peptide: Ac-IVLSLD[dV]PIKLK([γGlu-C20 diacid])KILLEQEKQKAQREQAETN[Aib]QILAQV-NH2
# SMILES: CC[C@H](C)[C@H](NC(C)=O)C(=O)N[C@H](C(=O)N[C@@H](CC(C)C)C(=O)N[C@@H](CO)C(=O)N[C@@H](CC(C)C)C(=O)N[C@@H](CC(=O)O)C(=O)N[C@@H](C(=O)N1CCC[C@H]1C(=O)N[C@H](C(=O)N[C@@H](CCCCN)C(=O)N[C@@H](CC(C)C)C(=O)N[C@@H](CCCCNC(=O)CC[C@H](NC(=O)CCCCCCCCCCCCCCCCCCC(=O)O)C(=O)O)C(=O)N[C@@H](CCCCN)C(=O)N[C@H](C(=O)N[C@@H](CC(C)C)C(=O)N[C@@H](CC(C)C)C(=O)N[C@@H](CCC(=O)O)C(=O)N[C@@H](CCC(N)=O)C(=O)N[C@@H](CCC(=O)O)C(=O)N[C@@H](CCCCN)C(=O)N[C@@H](CCC(N)=O)C(=O)N[C@@H](CCCCN)C(=O)N[C@@H](C)C(=O)N[C@@H](CCC(N)=O)C(=O)N[C@@H](CCCNC(=N)N)C(=O)N[C@@H](CCC(=O)O)C(=O)N[C@@H](CCC(N)=O)C(=O)N[C@@H](C)C(=O)N[C@@H](CCC(=O)O)C(=O)N[C@H](C(=O)N[C@@H](CC(N)=O)C(=O)NC(C)(C)C(=O)N[C@@H](CCC(N)=O)C(=O)N[C@H](C(=O)N[C@@H](CC(C)C)C(=O)N[C@@H](C)C(=O)N[C@@H](CCC(N)=O)C(=O)N[C@H](C(N)=O)C(C)C)[C@@H](C)CC)[C@@H](C)O)[C@@H](C)CC)[C@@H](C)CC)C(C)C)C(C)C
# B6: peptide of SEQ ID NO: 218 (peptide)
# peptide: [NMeI]VLSLD[dV]PIKLK([γGlu-C20 diacid])KILLEQEKQKEQREQAETN[Aib]QILAQV-NH2
# modifications: N-terminus assumed
# SMILES: CC[C@H](C)[C@H](NC)C(=O)N[C@H](C(=O)N[C@@H](CC(C)C)C(=O)N[C@@H](CO)C(=O)N[C@@H](CC(C)C)C(=O)N[C@@H](CC(=O)O)C(=O)N[C@@H](C(=O)N1CCC[C@H]1C(=O)N[C@H](C(=O)N[C@@H](CCCCN)C(=O)N[C@@H](CC(C)C)C(=O)N[C@@H](CCCCNC(=O)CC[C@H](NC(=O)CCCCCCCCCCCCCCCCCCC(=O)O)C(=O)O)C(=O)N[C@@H](CCCCN)C(=O)N[C@H](C(=O)N[C@@H](CC(C)C)C(=O)N[C@@H](CC(C)C)C(=O)N[C@@H](CCC(=O)O)C(=O)N[C@@H](CCC(N)=O)C(=O)N[C@@H](CCC(=O)O)C(=O)N[C@@H](CCCCN)C(=O)N[C@@H](CCC(N)=O)C(=O)N[C@@H](CCCCN)C(=O)N[C@@H](CCC(=O)O)C(=O)N[C@@H](CCC(N)=O)C(=O)N[C@@H](CCCNC(=N)N)C(=O)N[C@@H](CCC(=O)O)C(=O)N[C@@H](CCC(N)=O)C(=O)N[C@@H](C)C(=O)N[C@@H](CCC(=O)O)C(=O)N[C@H](C(=O)N[C@@H](CC(N)=O)C(=O)NC(C)(C)C(=O)N[C@@H](CCC(N)=O)C(=O)N[C@H](C(=O)N[C@@H](CC(C)C)C(=O)N[C@@H](C)C(=O)N[C@@H](CCC(N)=O)C(=O)N[C@H](C(N)=O)C(C)C)[C@@H](C)CC)[C@@H](C)O)[C@@H](C)CC)[C@@H](C)CC)C(C)C)C(C)C
# Target: Rat CRF2 a (corticotropin-releasing factor receptor 2), on the A7R5 rat aortic smooth muscle cell line (rat, UniProt P47866 20-411)
# Sequence (P47866 20-411): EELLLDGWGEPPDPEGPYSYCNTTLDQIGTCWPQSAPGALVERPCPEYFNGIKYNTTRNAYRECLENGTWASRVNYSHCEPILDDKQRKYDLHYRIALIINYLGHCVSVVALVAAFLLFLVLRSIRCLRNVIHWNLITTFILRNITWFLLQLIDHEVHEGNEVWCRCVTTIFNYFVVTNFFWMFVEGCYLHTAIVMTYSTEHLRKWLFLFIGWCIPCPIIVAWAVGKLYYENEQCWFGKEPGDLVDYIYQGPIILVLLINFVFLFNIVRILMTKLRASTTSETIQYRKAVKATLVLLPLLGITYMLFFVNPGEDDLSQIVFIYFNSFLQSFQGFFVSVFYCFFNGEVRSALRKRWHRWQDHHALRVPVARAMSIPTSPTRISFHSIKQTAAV
# Test: cell-based or functional assay
row,Binder,"EC50 [nM] 0% HSA (cAMP, A7R5 rat aortic smooth muscle cells)"
1,B1,0.18 nM
2,B2,0.45 nM
3,B3,3.23 nM
4,B4,0.06 nM
5,B5,0.08 nM
6,B6,0.13 nM
